B1: Heterogeneous nuclear ribonucleoprotein L (Homo sapiens), P14866-1 (parent)
chain: MSRRLLPRAEKRRRRLEQRQQPDEQRRRSGAMVKMAAAGGGGGGGRYYGGGSEGGRAPKRLKTDNAGDQHGGGGGGGGGAGAAGGGGGGENYDDPHKTPASPVVHIRGLIDGVVEADLVEALQEFGPISYVVVMPKKRQALVEFEDVLGACNAVNYAADNQIYIAGHPAFVNYSTSQKISRPGDSDDSRSVNSVLLFTILNPIYSITTDVLYTICNPCGPVQRIVIFRKNGVQAMVEFDSVQSAQRAKASLNGADIYSGCCTLKIEYAKPTRLNVFKNDQDTWDYTNPNLSGQGDPGSNPNKRQRQPPLLGDHPAEYGGPHGGYHSHYHDEGYGPPPPHYEGRRMGPPVGGHRRGPSRYGPQYGHPPPPPPPPEYGPHADSPVLMVYGLDQSKMNCDRVFNVFCLYGNVEKVKFMKSKPGAAMVEMADGYAVDRAITHLNNNFMFGQKLNVCVSKQPAIMPGQSYGLEDGSCSYKDFSESRNNRFSTPEQAAKNRIQHPSNVLHFFNAPLEVTEENFFEICDELGVKRPSSVKVFSGKSERSSSGLLEWESKSDALETLGFLNHYQMKNPNGPYPYTLKLCFSTAQHAS

Variants of: B1
Conditions: with roa2_human HNRNPA2B1, P22626
Chain of roa2_human HNRNPA2B1, P22626 (P22626 whole entry): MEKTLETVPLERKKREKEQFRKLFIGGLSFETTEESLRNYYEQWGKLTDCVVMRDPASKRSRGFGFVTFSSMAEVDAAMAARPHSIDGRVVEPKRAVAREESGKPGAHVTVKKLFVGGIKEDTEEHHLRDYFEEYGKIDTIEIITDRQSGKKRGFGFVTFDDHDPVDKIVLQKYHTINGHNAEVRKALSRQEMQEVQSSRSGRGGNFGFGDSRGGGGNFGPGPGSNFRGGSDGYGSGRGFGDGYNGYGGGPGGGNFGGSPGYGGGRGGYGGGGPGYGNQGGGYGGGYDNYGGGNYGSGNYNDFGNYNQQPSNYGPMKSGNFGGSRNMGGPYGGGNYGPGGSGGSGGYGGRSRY

Variant | effect of a mutation on the interaction
MSRRLLPRAEKRRRRLEQRQQPDEQRRRSGAMVKMAAAGGGGGGGRYYGGGSEGGRAPKRLKTDNAGDQHGGGGGGGGGAGAAGGGGGGENYDDPHKTPASPVVHIRGLIDGVVEADLVEALQEFGPISYVVVMPKKRQALVEFEDVLGACNAVNYAADNQIYIAGHPAFVNYSTSQKISRPGDSDDSRSVNSVLLFTILNPIYSITTDVLYTICNPCGPVQRIVIFRKNGVQAMVEFDSVQSAQRAKASLNGADIYSGCCTLKIEYAKPTRLNVFKNDQDTWDYTNPNLSGQGDPGSNPNKRQRQPPLLGDHPAEYGGPHGGYHSHYHDEGYGPPPPHYEGRRMGPPVGGHRRGPSRDGPQYGHPPPPPPPPEYGPHADSPVLMVYGLDQSKMNCDRVFNVFCLYGNVEKVKFMKSKPGAAMVEMADGYAVDRAITHLNNNFMFGQKLNVCVSKQPAIMPGQSYGLEDGSCSYKDFSESRNNRFSTPEQAAKNRIQHPSNVLHFFNAPLEVTEENFFEICDELGVKRPSSVKVFSGKSERSSSGLLEWESKSDALETLGFLNHYQMKNPNGPYPYTLKLCFSTAQHAS [Y359D] | increasing interaction strength
